We go through one compound from article PMC10418980, “Synthesis and Evaluation of ^177Lu-DOTA-PD-L1-i and ^225Ac-HEHA-PD-L1-i as Potential Radiopharmaceuticals for Tumor Microenvironment-Targeted Radiotherapy” (International Journal of Molecular Sciences, 2023).

Series [1] can be described thus: Stability in labeling medium (water/ascorbic acid/sodium acetate) by radio-HPLC. In kind it is physicochemical. The conditions noted are these: injectable-grade water/ascorbic acid/sodium acetate; 72 h after labeling (225Ac-HEHA: 72 h after purification); reversed-phase C18 radio-HPLC (225Ac: 1 mL fractions counted in NaI(Tl) detector). How it is done:
(§1) The radiochemical purity of the radioconjugates was determined by reversed-phase HPLC (Waters) with radiometric and UV-vis detectors. The analysis was carried out with a Discovery C18 column (particle size: 5 µm, length: 25 cm, diameter: 4.6 mm). A linear gradient (rate flow: 1 mL/min) of CH3CN-0.1% TFA (B)/H2O-0.1%TFA (A), from 100% to 10% of A in 30 min, was used. For ^225Ac-HEHA-PD-L1-i, fractions of 1.0 mL were collected, and the activity was evaluated in a NaI(Tl) detector (Auto In-v-tron 4010; NML Inc., Houston, TX, USA).
(§2) The ^225Ac-HEHA-PD-L1-i and ^177Lu-DOTA-PD-L1-i stability was evaluated in the medium they were obtained after labeling (water/ascorbic acid/sodium acetate) at 0.33, 3, 24, 48, and 72 h with radio-HPLC, as previously described. The conjugate solutions were diluted in human serum (5x) for stability assessment. The conjugates (n = 3) were incubated at 37 °C, and samples were taken at 0.33, 3, 24, 48, and 72 h.

A short description of series [2]: Serum stability by radio-HPLC. In kind it is in vitro ADME, human. As to conditions: diluted in human serum (5x), 37 °C, 72 h; reversed-phase C18 radio-HPLC; n = 3; read-out: radiochemical purity after 72 h in human serum. On the procedure: as §1, §2
The next series relates to HCC827 cells. Kind of series: Cell viability assay (flow cytometry, Muse Count & Viability Kit). Type of series: cell-based, human. As to conditions: 5 h. How it is done:
The effect of ^177Lu DOTA-PD-L1-i, ^225Ac-HEHA-PD-L1-i, and PD-L1-i on HCC827 cell viability (5 × 10^4) was determined by flow cytometry with the Muse® Count & Viability Kit from Luminex, DiaSorin, USA. Before taking readings with the Muse Cell Analyzer (Merck Millipore, Burlington, MA, USA) previously calibrated with the Muse® System Check kit, the baseline detection was established using a fresh sample of untreated cells that served to delimit the size and granularity of the cell line, as well as the basal viability of the population. Also, the reading window for dead cells was established using an aliquot of the same population treated with 0.5% Triton-X100. Once the detection window for the HCC827 cells was established to discriminate between live and dead cells, 50 µL (2 × 10^4 cells/200 µL) were taken from the cell suspension that had been treated with cold ligand (PD-L1-i, 0.1 µg), with 1.4 MBq of ^177Lu DOTA-PD-L1-i or 0.37 kBq of ^225Ac-HEHA-PD-L1-i for 5 h and then mixed with 450 µL of the viability reagent; after 5 min incubation at room temperature and in the dark, the samples were read in triplicate. For the calculation of the radiation absorbed dose to cell nuclei, the total number of nuclear transformations (N) normalized to the unit of administered activity (Bq^.s/Bq) was obtained with the A(t) mathematical integration (from t = 0 to t = 5 h). […]

Another series relates to healthy mice. Kind of series: Biodistribution in healthy mice. Type of series: in vivo, Nu/Nu mice. As to conditions: tail vein, 3.7 MBq 177Lu or 3.7 kBq 225Ac, 0.5-96 h, n = 3. How it is done: (§3) Under an approved protocol (No. 07-2018-2021), all animal procedures followed the ethical regulations for handling laboratory animals (NOM-062-ZOO-1999) and the Institutional Animal Care and Use Committee requirements. Male Nu/Nu (UPEAL, […], I.PN., Mexico City, Mexico) mice aged 6–8 weeks were maintained in a pathogen-free barrier facility. Mice were injected with 3.7 MBq (50 µL) of ^177Lu DOTA-PD-L1-I or 3.7 kBq (50 µL) of ^225Ac-HEHA-PD-L1-i in the tail vein and sacrificed at 0.5, 1, 3, 24, 72, and 96 h (n = 3). The heart, lungs, liver, pancreas, spleen, kidneys, small intestine, brain, and stomach were dissected to be measured in a NaI(Tl) radioactivity detector. The results are expressed as the percentage of injected dose (%ID) per organ. Blood samples were also extracted, and the activity was recorded as %ID/g. A second group of mice was inoculated intravenously with 1 × 10^6 HCC827 cells. The animals were treated with 3.7 MBq (50 µL) of ^177Lu DOTA-PD-L1-i (n = 3) or 3.7 kBq (50 µL) of ^225Ac-HEHA-PD-L1-i (n = 3) via tail vein injection on day five post-tumor cell inoculation. The animals were dissected as described above. In the case of ^177Lu DOTA-PD-L1-i, radioisotopic/X-ray in vivo/ex vivo images were obtained in a Preclinical Imaging System (Bruker, XTREME). For in vivo imaging, mice were anesthetized with oxygen and 2% isoflurane.

The test system of series [3] is mice intravenously injected with HCC827 lung cancer cells (PD-L1+). Kind of series: Biodistribution and biokinetic models in mice with HCC827 lung micrometastases. Type of series: in vivo, Nu/Nu mice. How it is done:
as §3
The %ID values were used to obtain the biokinetic models ( qht ). The Ah(t) functions were obtained by decay-correcting the biokinetic models, that is, by adding to the biological constant (λB ) the radioactive constant (λR ), as follows (Equation (1)):(1) At=Be^−(λR+λB)t+Ce^−(λR+λB)t+De^−(λR+λB)t

In series [4] the test system is lungs of athymic mice with or without HCC827 lung micrometastases. Put plainly: Radioisotopic/X-ray imaging. Type of series: in vivo. How it is done:
as §3

[5] abbreviates: lungs invaded with HCC827 cancer cells.
Setting [6] is: ex vivo lungs, radioisotopic imaging.

Take `CCCC[C@H]1C(=O)N(C)[C@@H](CCCC)C(=O)N[C@@H](CCCNC(=S)Nc2ccc(C[C@H]3CN(CC(=O)O)CCN(CC(=O)O)CCN(CC(=O)O)CCN3CC(=O)O)cc2)C(=O)N[C@H](C(=O)NCC(N)=O)CSCC(=O)N[C@@H](Cc2ccc(O)cc2)C(=O)N(C)[C@@H](C)C(=O)N[C@@H](CC(N)=O)C(=O)N2CCC[C@H]2C(=O)N[C@@H](Cc2c[nH]cn2)C(=O)N[C@@H](CC(C)C)C(=O)N2C[C@H](O)C[C@H]2C(=O)N[C@@H](Cc2c[nH]c3ccccc23)C(=O)N[C@@H](CO)C(=O)N[C@@H](Cc2cn(C)c3ccccc23)C(=O)N1C` [^177Lu-DOTA-PD-L1-i, metal not drawn]: the “radiochemical purity after 72 h in water” value in series [1] was “greater than 97.5 ± 0.5%”. Moreover, the remaining at 72 h in series [2] is over 97.5%. For the same compound, in the series on HCC827 cells (177Lu 15 Gy, 225Ac 5 Gy), the “net decrease in alive cells regarding the control group (representative histogram)” value is given as 30%. The compound also displayed a net decrease viability with HCC827 cells (177Lu-DOTA-PD-L1-i 15 Gy (1.4 MBq/20,000 cells), 225Ac-HEHA-PD-L1-i 5 Gy (0.37 kBq/20,000 cells), PD-L1-i 0.1 µg/20,000 cells, read in triplicate) of 31.42 ± 2.01%. Moreover, the “biodistribution profile in healthy mice” value in the series with healthy mice was “rapid blood clearance with renal and hepatobiliary elimination and no accumulation in normal tissues”. In addition, in series [3] (kidneys, biokinetic model), the “λ, kidney, fast phase” value is 3.65 and the “λ, kidney, slow elimination slope” value was found to be 0.009. Besides, the “half-life, kidney, slow elimination slope” value in series [3] (kidneys, t1/2 = ln2/λ) worked out at 77 h. Moreover, in series [3] (kidneys, t1/2 = ln2/λ, 177Lu 3.7 MBq, 225Ac 3.7 kBq i.v.), the “half-life, kidney, fast phase” value is 0.19 h. In addition, in series [3] (liver, biokinetic model), the “λ, liver, fast phase” value came out at 1.23 and the “λ, liver, slow phase” value amounted to 0.01. Besides, the “fraction of activity taken up in the liver cleared rapidly” value in series [3] (liver, fast phase (hepatobiliary elimination), 3.7 MBq i.v.) was “seventy-four”. In addition, in series [3] (liver, slow phase), the “fraction of activity taken up in the liver cleared slowly” value is “twenty-six”. For the same compound, the “half-life, liver, fast phase” value in series [3] (liver, t1/2 = ln2/λ) is given as 0.56 h. For the same compound, the “half-life, liver, slow phase” value in series [3] (liver, t1/2 = ln2/λ, 177Lu 3.7 MBq, 225Ac 3.7 kBq i.v.) worked out at 69 h. Also, in series [3] (setting [5]), the “fraction of lung uptake activity with the long half-life” value was “Ninety”; the “fraction of lung uptake activity with the short half-life” value is on record as “ten”; the “half-life, lung, long component” value is 346.5 h; the “half-life, lung, short component” value came to 17.3 h. For the same compound, in series [4] (setting [6]), the “lung uptake pattern, average number of emitted photons per normalized area, mice in which metastases were not induced” value came out at 78 ± 32 photons/cm^2 and the “lung uptake pattern, average number of emitted photons per normalized area, mice with metastatic HCC827 cells” value came to 298 ± 82 photons/cm^2. Also, the “tissue accumulation in radioisotopic images” value in series [4] (in vivo and ex vivo, athymic mice with lung micrometastases, 30 min, 24 and 72 h) is reported as “the only tissue that accumulated the radiotracer was the lung invaded by HCC827 cancer cells”.
